In experiment [1] the target is T1, TRAIL death receptor DR4 (UniProt O00220 24-468, limits assumed).
T1 construct: whole, on cells; also called DR4 receptor
T1 sequence (looked up): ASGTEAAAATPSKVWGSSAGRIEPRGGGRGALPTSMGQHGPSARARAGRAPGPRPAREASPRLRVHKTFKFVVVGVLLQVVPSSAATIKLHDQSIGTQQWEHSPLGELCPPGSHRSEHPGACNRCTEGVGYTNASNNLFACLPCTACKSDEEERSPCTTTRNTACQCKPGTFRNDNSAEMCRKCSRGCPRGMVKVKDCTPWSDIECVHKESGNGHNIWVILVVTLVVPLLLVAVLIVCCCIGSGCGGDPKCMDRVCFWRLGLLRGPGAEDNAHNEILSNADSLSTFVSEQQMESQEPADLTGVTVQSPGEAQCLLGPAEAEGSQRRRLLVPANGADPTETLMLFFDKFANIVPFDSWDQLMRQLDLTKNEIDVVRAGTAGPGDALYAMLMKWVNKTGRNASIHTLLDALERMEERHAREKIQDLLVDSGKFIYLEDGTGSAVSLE
Kind of experiment: flow cytometry on BHK cells transfected with the DR4 receptor gene. The procedure: (§1) Hamster-derived BHK cells transfected with the DR4 receptor or DR5 receptor gene were incubated with the antibody of the present invention for 1 hour and analyzed by flow cytometry in the same way as in Example 6.
(§2) In order to confirm whether the antibody of the present invention targets a TNF-related apoptosis inducing ligand (TRAIL) death receptor DR4 or DR5 known as a death receptor (cell death-inducing antigen), the antibody of the present invention was examined for its ability to stain hamster-derived BHK cells transfected with the DR4 receptor or DR5 receptor gene in the same way as above. As a result, the cells were stained by a known antibody against DR4 receptor or DR5 receptor (red line), but not stained by the antibody of the present invention (FIG. 9).
Background: A flow cytometer gives signals particle by particle.

The target in experiment [2] is T2, #25 (human).
T2 peptide: WNSQKDFLERRRA
As to the kind of experiment: SPOTs peptide membrane (HLA-DR epitope peptide library).

In experiment [3] the target is T3, #34 (human).
T3 peptide: WNSQKDLLEQRRA
The experiment is described as above.

Experiment [4] has as its target T4, #38 (human).
T4 peptide: WNSQKDLLERRRA
The experiment is described as above.

For experiment [5], the target named is T5, HLA-DR expressed by L428 cells (human).
T5 construct: whole, on cells; The assay is on L428 cells; also called HLA-DR12; HLA-DR on L428 cells
Kind of experiment: flow cytometry on L428 cells, serially diluted antibody; reference LN3. The procedure: The ability of each antibody to bind to L428 cells was analyzed by incubation with each of serially diluted antibody solutions using a flow cytometer. […] For cell death induction, the uptake of propidium iodide (PI) was analyzed using a flow cytometer.

Experiment [6] has as its target T6, peptide CRHNYGVGESFT (human).
T6 construct: Region of the HLA-DR52 β chain on the peptide microarray (overlapping 8- to 12-mers)
T6 peptide: CRHNYGVGESFT
Kind of experiment: peptide microarray of overlapping HLA-DR52 β chain peptides, 5 µg/mL 4713 mAb. The procedure: (§3) Overlapping peptides consisting of 8 to 12 amino acids shifted by one amino acid were chemically synthesized from their C termini on an array using the amino acid sequence of an HLA-DR52 β chain having the highest homology as a result of analysis using software Mascot (Shimadzu Techno-Research, Inc.) to prepare a peptide microarray (LC Sciences, LLC, Texas, US). First, the array was blocked by immersion overnight at 4° C. in a SuperBlock (pH 7.0) (Pierce Biotechnology Inc.) solution containing 0.05% Tween-20 to prevent nonspecific antibody binding. […] The array was washed with the washing solution for 20 minutes and then incubated at 25° C. for 1 hour in a 10 ng/mL Cy5-labeled goat anti-mouse IgG antibody solution. Cy5 was assayed at a wavelength of 635 nm using a microarray scanner (PMT 700 V). Since nonspecific binding to a peptide sequence having a C-terminal tryptophan residue was observed, this sequence was omitted and peptide sequences showing specific binding were then analyzed. […] A peptide sequence ([…]: SEQ ID NO: 2) of the HLA-DR β-chain to which an antibody described in WO2003/033538 bind is located 6 amino acid residues before the second N-terminal cysteine residue.

Experiment [7] concerns the target T7, DR12-6 (human).
T7 peptide: FFNGTERVRLLERHF
As to the kind of experiment: SPOTs peptide membrane, biotinylated 4713 antibody 1 µg/mL. The procedure:
(§4) In order to reconfirm the results obtained using the peptide microarray, HLA-DR expressed by L428 cells was analyzed. […] Next, overlapping peptides were synthesized from the amino acid sequence of HLA-DR12 to prepare a custom SPOTs nitrocellulose membrane (Sigma-Aldrich Corp.). The membrane was rinsed with methanol for 5 minutes, then washed with a […] (TBS), and incubated at room temperature for 2 hours for blocking. […] The membrane was washed and then incubated for 2 hours in a solution of peroxidase (HRP)-labeled streptavidin (manufactured by Dako Japan Inc.) diluted 3000-fold with TBS. After washing, positive spots were detected using ECL Prime Western Blotting Detection kit (manufactured by GE Healthcare Japan Corp.) and a chemiluminescence detector (LAS-4000) (Table 3). As a result, the most strongly reacted peptide was DR12-26, followed by DR12-6 and DR12-13. […] Although an HLA-DR12-derived peptide to which the antibody described in WO2003/033538 binds was also arrayed as DR12-28, no binding was seen (Table 3).

The target in experiment [8] is T8, DR12-7 (human).
T8 construct: HLA-DR12 overlapping peptide on SPOTs membrane
T8 peptide: LLERHFHNQEELLRF
The experiment is described as above. As for the experimental part: as §4

Experiment [9] concerns the target T9, DR12-13 (human).
T9 construct: HLA-DR12 overlapping peptide on SPOTs membrane; also called DR-13
T9 peptide: RHNYGAVESFTVQRR
The experiment is described as above. The procedure: as §4

Experiment [10] concerns the target T10, DR12-3 (human).
T10 construct: HLA-DR12 overlapping peptide on SPOTs membrane
T10 peptide: LMVLSSRLAFAGDTR
The experiment is described as above. The procedure:
as §4

For experiment [11], the target named is T11, DR12-15 (human).
T11 construct: HLA-DR12 overlapping peptide on SPOTs membrane
T11 peptide: KVTVYPSKTQPLQHH
The experiment is described as above. As for the experimental part: as §4

Experiment [12] has as its target T12, DR12-14 (human).
T12 construct: HLA-DR12 overlapping peptide on SPOTs membrane
T12 peptide: FTVQRRVHPKVTVYP
The experiment is described as above. As for the experimental part: as §4

In experiment [13] the target is T13, DR12-26 (human).
T13 construct: HLA-DR12 peptide on SPOTs membrane; also called DR-26
T13 peptide: RNQKGHSGLQPRGFLS
The experiment is described as above. As for the experimental part: as §4

Experiment [14] concerns the target T14, DR12-17 (human).
T14 construct: HLA-DR12 overlapping peptide on SPOTs membrane
T14 peptide: VCSVSGFYPGSIEVR
The description is as above. As for the experimental part:
as §4

Experiment [15] concerns the target T15, DR12-2 (human).
T15 construct: HLA-DR12 overlapping peptide on SPOTs membrane
T15 peptide: SSLAALTVTLMVLSS
Described as above. The procedure:
as §4

The target of experiment [16] is T16, DR12-25 (human).
T16 construct: HLA-DR12 overlapping peptide on SPOTs membrane
T16 peptide: WRARSESAQSK
The experiment is described as above. As for the experimental part: as §4

The target of experiment [17] is T17, DR12-4 (human).
T17 construct: HLA-DR12 overlapping peptide on SPOTs membrane
T17 peptide: FAGDTRPRFLEYSTG
The description is as above. As for the experimental part:
as §4

Experiment [18] has as its target T18, peptide sequence WNSQKDILEQKRG of the HLA-DR β-chain (human).
T18 construct: on the microarray as overlapping 8- to 12-mers
T18 peptide: WNSQKDILEQKRG
As to the kind of experiment: peptide microarray of overlapping HLA-DR52 β chain peptides. As for the experimental part:
as §3

In experiment [19] the target is T19, TRAIL death receptor DR5 (UniProt O14763 56-440, limits assumed).
T19 construct: whole, on cells; also called DR5 receptor
Kind of experiment: flow cytometry on BHK cells transfected with the DR5 receptor gene. The procedure:
as §1, §2

B1: 4713 mAb (antibody, mouse IgG1, V domains shown)
VH: DVQLQESGPGLVKPSQSLSLTCTVTGYSITNDYAWNWIRQFPGNKLEWMGYISYNDFTYYNPSLKSRISITRDTSKNQFFLQLNSVTAEDTATYYCVSERLRLVNHVMDYWGQGTSVIVSS
VL: QIVLTQSPPIMSASPGEKVTMTCSASSSVNYMHWHQQKSGTSPKKWIYDTSKLISGVPARFSGSGSGTSYSLTISSVEAEDAATYYCQQWSSYPFTFGSGTKLEIK
modifications: Used biotinylated on the SPOTs membranes; the site is not given.
notes: also called monoclonal antibody of the present invention
Consider B1, for which the binding result in experiment [1] is given as “no binding”; in [2], “binds”; in experiment [3] it was “binds”; in [4], “binds”; in experiment [6], “binds”; in experiment [7] it was “binds”. For the same molecule, the binding result in experiment [8], in experiment [9], in [10], in experiment [11], in experiment [12] and in experiment [13] was “binds” each time. The binding result is “binds” in experiment [14]; “binds” in [15]; “binds” in experiment [16]; “binds” in [17]; “no binding (tested: 5 µg/mL)” in [18]; “no binding” in experiment [19]. In [5], the “fold lower concentration for binding than LN3” value was about 10 times.

The record behind these values is patent US20130236470A1 (JUNTENDO EDUCATINAL FOUNDATION, published 2013).
